Source: paper PMC12239786, “SARS-CoV-2 RNA-binding protein suppresses extracellular miRNA release”

Key:
[1] = target: His-Nsp9 (SARS-CoV-2, UniProt P0DTD1 4141-4253); assay: fluorescence polarization; 100 nM RNA; FP: 20 mM HEPES pH 7.0, 150 mM NaCl, 2 mM MgCl2, 10 mM DTT, 1 U/ul RiboLock, 5 min at room temperature; NMR: 20 mM HEPES pH 7.0, 15 mM NaCl, 0.5 mM TCEP, 0.02%; conditions: protein: recombinant; tags: His; chain copies: 2; label: 3' Cy3
[2] = target: NCL (RNA-binding domain on protein array) (human, UniProt P19338 307-647); assay: protein microarray; FP: 20 mM HEPES pH 7.0, 150 mM NaCl, 2 mM MgCl2, 10 mM DTT, 1 U/ul RiboLock, 5 min at room temperature; NMR: 20 mM HEPES pH 7.0, 15 mM NaCl, 0.5 mM TCEP, 0.02%; conditions: protein: recombinant; label: 5' biotin
[3] = target: AUF1 (RNA-binding domain on protein array) (human, UniProt Q14103 97-261); assay: as above; conditions: protein: recombinant; label: 5' biotin
Chain of AUF1 (RNA-binding domain on protein array) (Q14103 97-261): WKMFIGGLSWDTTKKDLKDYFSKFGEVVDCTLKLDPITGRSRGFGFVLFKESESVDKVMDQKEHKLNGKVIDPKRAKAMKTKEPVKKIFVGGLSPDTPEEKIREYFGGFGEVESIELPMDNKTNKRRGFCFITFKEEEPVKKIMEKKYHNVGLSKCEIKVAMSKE

Chain of NCL (RNA-binding domain on protein array) (P19338 307-647): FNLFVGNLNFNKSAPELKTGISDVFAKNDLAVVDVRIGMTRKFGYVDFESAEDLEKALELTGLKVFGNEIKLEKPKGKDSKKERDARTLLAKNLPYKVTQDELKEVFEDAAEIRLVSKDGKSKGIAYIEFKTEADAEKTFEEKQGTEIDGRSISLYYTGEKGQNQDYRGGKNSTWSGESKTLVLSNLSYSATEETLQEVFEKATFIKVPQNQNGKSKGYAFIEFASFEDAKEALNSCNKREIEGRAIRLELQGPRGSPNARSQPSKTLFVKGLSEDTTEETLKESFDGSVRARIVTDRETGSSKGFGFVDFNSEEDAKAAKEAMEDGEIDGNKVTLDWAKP

| Binder | Kd [1] [nM] | binding result [1] | other results |
| --- | --- | --- | --- |
| CAGUGCAAUGAUGAAAGGGCAU (ssRNA, 5' phosphate) [miR-130b-Cy3] | ~63 | – | – |
| UGAGGUAGUAGGUUGCCAUUAU (ssRNA, 5' phosphate) [mutant let-7b-Cy3] | – | no binding | – |
| UGAGGUAGUAGGUUGUGUGGUU (ssRNA) [let-7b-biotin] | – | – | binding result [2]: binds; binding result [3]: binds |
| UAGCUUAUCAGACUGAUGUUGA (ssRNA, 5' phosphate) [miR-21-Cy3] | – | no binding | – |
| UGAGGUAGUAGGUUGUGUGGUU (ssRNA, 5' phosphate) [let-7b-Cy3] | ~15 | – | – |
